Data taken from the supplement of paper PMC12764529.
± gives the half width of the 95% confidence interval.

Assays:
[1] = folding stability dG unfold (combined trypsin and chymotrypsin); higher = more stable
In short: (§1)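 Sequencing followed digestion of designed mini-proteins with trypsin and chymotrypsin, each at 11 concentrations in threefold dilutions together with a no-protease condition. The mini-proteins were under 80 residues, had no cysteine, sat in a PA-tagged cDNA display construct, and were kept only if AlphaFold2 dimer inter-PAE was above 15. From the counts, Bayesian fitting gave K50, and unfolding free energy was derived against a sequence-predicted unfolded-state K50 and a shared folded-state K50, per protease or combined.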

[2] = folding stability dG unfold from trypsin proteolysis; higher = more stable
In short: as §1

[3] = folding stability dG unfold from chymotrypsin proteolysis; higher = more stable
In short: as §1

| Sequence | folding stability dG unfold [1] [kJ/mol] | folding stability dG unfold [2] [kJ/mol] | folding stability dG unfold [3] [kJ/mol] |
| --- | --- | --- | --- |
| SAGGDTVTTTETFPEKPILTVTTTSFSPSGTTTTTTTTYEVENGKIVSKLSTTTTTTAVAPAPPGTASAGGS [r16_682_JUSTAS] | 3.94 ± 0.151 | 2.97 ± 0.142 | 4.38 ± 0.1 |
| SAGGDWMLVIEIEIEGQPTPDGQIKVEISIEIELVRPPPPPITPWDRMAEEARDKNPNIPPDDPEAMTSAGG [r13_136_TrROS] | 8.08 ± 0.837 | 8.86 ± 0.46 | 7.12 ± 0.397 |
| SAGGDWVPIEFTIMVPAEELQEGKPPTAEDIVEELFPPNFNVDIDVQQFPGNGYVYATVKIWVPPGMPSAGG [r13_862_TrROS] | 10 ± 0.879 | 9.86 ± 0.795 | 10.3 ± 0.41 |
| SAGGDYVKIDFTVMIPTPEQAEEMAEEIKNFFRFMGIKEVKIKVQRNPNNGMYYVTVDIEIRMPPGAVSAGG [r19_92_TrROS] | 20.2 ± 0.711 | 14 ± 0.837 | 21.4 ± 0.418 |
| SAGGEEEILRQIREAAKKGEEVTIVFPKGMSIEELKKLIEEELGVEVEEIKVEKNENGELTVTIKVKSAGGS [r16_318_TrROS_Hall] | 17 ± 1.09 | 18.1 ± 1 | 12.5 ± 0.46 |
| SAGGEEELRKAAEIAAAPPLEIEPVLETFTVETEEGPRVVLVISPVVRFPGDGVLIPNPVLVIPAEELSAGG [r19_11_TrMRF] | 2.93 ± 0.46 | 3.6 ± 0.218 | 1.26 ± 0.46 |
| SAGGEEKVITKEETITVPPDAGTITISSNEVIKDPNSSYTYYVKESKTVSRDPNSNVYTITLKIKVEKSAGG [r13_574_JUSTAS] | 2.71 ± 1.38 | -0.415 ± 0.502 | 3.84 ± 1.8 |
| SAGGEELIKELLDKLPPDVKEATIEIEVDGKKVTLTVNEDGEVTLEVIDPETKEKKTFKIKNGKIEPVSAGG [r13_803_TrROS_Hall] | 12.4 ± 1.17 | 10.3 ± 1.17 | 13.3 ± 0.331 |
| SAGGEETVTLELELEFEPGMTEEELEEKARELAEALAEELGLEVEVEVRVERDEDGRVRVTVEVRVKSAGGS [r16_279_TrROS_Hall] | 10.7 ± 0.36 | 12.3 ± 0.318 | 8.62 ± 0.213 |
| SAGGEGEPFRITPDEIQRIFNELAQDHGFNVSISEIQVPGDEVRITISIQHDGGTQSVRLPFRIEKDDSAGG [r13_652_TrROS] | 1.55 ± 0.879 | 1.79 ± 0.837 | 0.798 ± 0.879 |
| SAGGEIEIVVETPEDLEKAKELAEELAKALEEAGLEIEEVKVELVEETVVNEDGEEKKRYVLKITFPSAGGS [r16_591_TrROS_Hall] | 12.4 ± 0.586 | 10.3 ± 0.418 | 13.6 ± 0.36 |
| SAGGEIKPGQTVRIRITVYNLETGEEKTIEVEVPAGKTLEEVLAELFDNLSEEERKNLVVRIEIEPVSAGGS [r16_321_TrROS_Hall] | 20.5 ± 1.09 | 18.3 ± 0.628 | 21 ± 0.502 |
| SAGGEISPEDIKELEIYPIPPEDAQKNGYIMIEIKGPGGKPIAQIMIPVRVPKVKDKDGKPMDLEDMNSAGG [r13_864_TrROS] | 5.51 ± 0.92 | 4.71 ± 0.184 | 6.68 ± 0.293 |
| SAGGEKEYVEVTLEIEIEIELEPGESAEEIARKLAEELGAEITEVRVERLPDGTVKITVTVRVKLPPSAGGS [r8_292_TrROS_Hall] | 12.5 ± 1.46 | 13.8 ± 1.21 | 10.8 ± 0.837 |
| SAGGEKIEELLKELLEKLEIKPGEKVEIEIEFELEDGYRIKLKITVTYNEETGEVEIKVEIVEIEKVSAGGS [r16_634_TrROS_Hall] | 17.7 ± 0.795 | 12.4 ± 0.502 | 18.4 ± 0.711 |
| SAGGEKKPVKVKIEVESFKLPNVLVLKAKVYLPATGKWYEAIVIEGPTKTLVVIKFPDGSSLVLELNSAGGS [r16_657_TrMRF] | 16.3 ± 1.3 | 12.4 ± 0.711 | 17.3 ± 0.502 |

| Sequence | folding stability dG unfold [1] [kJ/mol] | folding stability dG unfold [2] [kJ/mol] | folding stability dG unfold [3] [kJ/mol] |
| --- | --- | --- | --- |
| SAGGEKPKEVEIEEVVVKNEETGEEVRFFRIRDKETDEWYVLAVVRNKDGEEKVVKMSAEEAKKLLESAGGS [r8_421_TrROS_Hall] | 15 ± 0.586 | 13.1 ± 0.272 | 15.5 ± 0.184 |
| SAGGEKVTVTVTTETKTVTVTVYKAPAPKFKVTEITLELDENGNLRLTIKLENGETLEFDSLEDLLAALSAG [r5_618_TrROS_Hall] | 11.4 ± 1.26 | 11.6 ± 0.331 | 13.3 ± 0.628 |
| SAGGELKLLFNFPSKEEAEEFAEALKKAYPNFEVEVEYDPETGLFYLTLKPKEIPPLSPEELEKLLESAGGS [r16_674_TrMRF] | 19.7 ± 0.297 | 12.4 ± 0.356 | 20.4 ± 0.234 |
| SAGGELVLLIRVTPERIEIRLLPKEALEGLELEAPPGERLLLVELEPPPPEEEEREERRREEREELEESAGG [r13_74_TrROS_Hall] | 5.52 ± 1.72 | 5.61 ± 0.544 | 5.85 ± 0.962 |
| SAGGEMVTIRVRAPDPEKLIEALREEFPEGLTIRPFPRPTPDGYEVLIVVPAERPEELLEAVERAIGSAGGS [r16_43_TrMRF] | 8.89 ± 0.285 | 8.42 ± 0.314 | 9.06 ± 0.092 |
| SAGGEPMKIRIEIYRMKRKKDPKDGKEKWDMRPVPEYEIPFPPGETLLDILDKLPLPPGYMIKRISIESAGG [r13_716_TrROS] | 8.89 ± 1.34 | 9.52 ± 0.406 | 8.68 ± 0.502 |
| SAGGEPPPVRVSFSVEEVTVGAGPVFVRRVVTYDPAEGRVSEFVEVFERGRGGLLGRSSRTVPAEELASAGG [r13_772_TrMRF] | 18.6 ± 0.669 | 17.1 ± 0.628 | 19.7 ± 0.544 |
| SAGGEPVKFIPPGWKITLTTPDGRPLTFTLPANATPEDFKSLELPGDHELEFVEFLPDGTILVRSPKSAGGS [r16_103_TrMRF] | 4.67 ± 0.46 | 3.96 ± 0.368 | 5.02 ± 0.753 |
| SAGGERLTLEELEELLKNLPPGVEEVTITLKLEVEVRTEVRLNEDGSLETRTETRVTTELTLTLPKESAGGS [r16_708_TrROS_Hall] | 14.5 ± 1.05 | 10.5 ± 1.42 | 16.8 ± 1.67 |
| SAGGETKTLTIKFYDPKTGKLVAEVTITYTPEKVTVTIRFADGTTETVEMTAEELLAKLPPGAVIVPSAGGS [r16_543_TrROS_Hall] | 18 ± 0.669 | 15.9 ± 0.46 | 18.7 ± 0.92 |
| SAGGETLTVTVLIKNKDEKNKYYKVEVKVTVEKNENGEKTLTIEMKITDKNGNKKTIKVNLKDIKIIDSAGG [r13_787_TrROS_Hall] | 15.5 ± 1.34 | 10.5 ± 1.09 | 18.1 ± 1 |
| SAGGETRTFMFPFKPGMPLEEIIEELIDVLQKKGKDYPIEFKPIEPDPNGYMLFMATVTNNKITIFWSAGGS [r8_7_TrROS] | 11.8 ± 0.711 | 9.31 ± 0.209 | 12.7 ± 0.347 |
| SAGGETVTLTLKVETLEELEALAKKLAEETGEEVTIEVIGPDGKKYTFKTPEELKNIPGATVKITIKKSAGG [r13_620_TrROS_Hall] | 12 ± 0.628 | 9.15 ± 0.544 | 12.4 ± 0.172 |
| SAGGEVELKIKIEIRVELNEDGELKVEIKIEIELRPKPEPELTEEERLAEELRKKYPGLSKEELEALLSAGG [r13_136_TrROS_Hall] | 9.7 ± 1.13 | 12 ± 1.34 | 6.81 ± 0.544 |
| SAGGEVKPGDKVKVRLRLRVRLEDGEEVEVELEFVEVEVVPLSEEEKEKLEELKKKKPEVDPKNKELLSAGG [r13_330_TrROS_Hall] | 7.58 ± 1.26 | 6.72 ± 0.544 | 9.37 ± 0.46 |
